Assay results: patent US20220155314A1 (ACADEMIA SINICA, published 2022)

Biological target: T1, HA-GCM1 (UniProt Q9NP62 1-436)
T1 construct: Expressed in transfected 293T or Hep3B cells; also called glial cells missing 1; pHA-GCM1; not shown: N-terminal HA tag
T1 sequence (looked up): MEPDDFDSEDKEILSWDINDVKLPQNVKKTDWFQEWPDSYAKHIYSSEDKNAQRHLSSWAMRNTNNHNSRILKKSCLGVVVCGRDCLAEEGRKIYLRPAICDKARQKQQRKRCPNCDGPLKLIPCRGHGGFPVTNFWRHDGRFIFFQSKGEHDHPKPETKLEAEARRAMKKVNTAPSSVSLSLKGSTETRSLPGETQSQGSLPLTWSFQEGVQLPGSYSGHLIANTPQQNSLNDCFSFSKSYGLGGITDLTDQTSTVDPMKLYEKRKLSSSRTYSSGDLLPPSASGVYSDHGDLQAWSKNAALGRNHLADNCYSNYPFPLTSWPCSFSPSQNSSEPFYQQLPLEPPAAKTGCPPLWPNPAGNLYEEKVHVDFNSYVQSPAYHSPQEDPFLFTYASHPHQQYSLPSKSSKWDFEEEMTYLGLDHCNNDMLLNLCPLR
Test: co-immunoprecipitation with HA and FLAG mAbs in transfected 293T cells
Excerpt: 293T cells were transfected with different combinations of pΔNp63α-FLAG, pOVOL1-FLAG, and pHA-GCM1 for co-immunoprecipitation analysis with HA and FLAG mAbs. […] 293T cells were transfected with pHA-GCM1 and different pΔNp63α-FLAG plasmids encoding full-length or deletion mutant ΔNp63α-FLAG proteins, followed by co-immunoprecipitation analysis with HA and FLAG mAbs. Schematic representation of functional domains in ΔNp63α is presented. DBD: DNA-binding domain; OD: oligomerization domain; SAM: sterile alpha motif; TID: transactivation inhibitory domain. In a separate experiment, 293T cells were transfected with pΔNp63α-HA and pGAL4-FLAG or different pGAL4-GCM1-FLAG plasmids encoding full-length or deletion mutant GAL4GCM1-FLAG proteins for co-immunoprecipitation analysis with HA and FLAG mAbs. Schematic representation of functional domains in GCM1 is presented. TAD: transactivation domain. […] Glutathione-conjugated agarose beads pre-bound with GST, GST-SAM or GST-OD were incubated with recombinant GCM1-FLAG protein in pull-down assays. […] Mock and ΔNp63α-FLAG-expressing BeWo cells were subjected to immunoblotting (left) and quantitative RT-PCR (right) analyses of GCM1, HTRA4, and hCGβ proteins and transcripts. […] BeWo cells stably expressing scramble or GCM1 shRNA were subjected to immunoblotting (left) and quantitative RT-PCR (right) analyses of GCM1 and ΔNp63α proteins and transcripts.

B1: OVOL1-FLAG (other, human, UniProt O14753 1-267, looked up)
chain: MPRAFLVKKPCVSTCKRNWSELPDEERGEIYVPVSLGFCPPQPYREPEPSVAEPPSCPLALNMSLRDSSYSMAPGPCVVAQLPSEDMGHLTDPQSRDHGFLRTKMKVTLGDSPSGDLFTCRVCQKAFTYQRMLNRHMKCHNDVKRHLCTYCGKGFNDTFDLKRHVRTHTGVRPYKCSLCDKAFTQRCSLESHLKKIHGVQQKYAYKERRAKLYVCEECGCTSESQEGHVLHLKEHHPDSPLLRKTSKKVAVALQNTVTSLLQGSPHL
notes: also called pOVOL1-FLAG; pOVOL-1-FLAG; not shown: C-terminal FLAG tag
B1: no binding.
